Measured values from article PMC7430637, “Alternative splicing and allosteric regulation modulate the chromatin binding of UHRF1” (Nucleic Acids Research, 2020).

Tests used:
Experiment in all cases: fluorescence polarisation; FAM-labelled H3(1-15) peptide, recombinant protein titrated; RT; as described (ref. 28)
Conditions in all cases: both partners purified
[1] = molecular target: T1, mUHRF1 V1 R-S* (R298A/N299A/T300A/G301A/K302A/S303A), full-length (mouse, UniProt Q8VDF2-1 1-782, R298A | N299A | T300A | G301A | K302A | S303A)
T1 construct: UHRF1, mouse, splicing variant V1, NCBI NP_001104550.1, with six alanine substitutions in Linker 2; source: E. coli BL21(DE3) RIL, purified (HisPur Cobalt-Resin)
T1 sequence (looked up): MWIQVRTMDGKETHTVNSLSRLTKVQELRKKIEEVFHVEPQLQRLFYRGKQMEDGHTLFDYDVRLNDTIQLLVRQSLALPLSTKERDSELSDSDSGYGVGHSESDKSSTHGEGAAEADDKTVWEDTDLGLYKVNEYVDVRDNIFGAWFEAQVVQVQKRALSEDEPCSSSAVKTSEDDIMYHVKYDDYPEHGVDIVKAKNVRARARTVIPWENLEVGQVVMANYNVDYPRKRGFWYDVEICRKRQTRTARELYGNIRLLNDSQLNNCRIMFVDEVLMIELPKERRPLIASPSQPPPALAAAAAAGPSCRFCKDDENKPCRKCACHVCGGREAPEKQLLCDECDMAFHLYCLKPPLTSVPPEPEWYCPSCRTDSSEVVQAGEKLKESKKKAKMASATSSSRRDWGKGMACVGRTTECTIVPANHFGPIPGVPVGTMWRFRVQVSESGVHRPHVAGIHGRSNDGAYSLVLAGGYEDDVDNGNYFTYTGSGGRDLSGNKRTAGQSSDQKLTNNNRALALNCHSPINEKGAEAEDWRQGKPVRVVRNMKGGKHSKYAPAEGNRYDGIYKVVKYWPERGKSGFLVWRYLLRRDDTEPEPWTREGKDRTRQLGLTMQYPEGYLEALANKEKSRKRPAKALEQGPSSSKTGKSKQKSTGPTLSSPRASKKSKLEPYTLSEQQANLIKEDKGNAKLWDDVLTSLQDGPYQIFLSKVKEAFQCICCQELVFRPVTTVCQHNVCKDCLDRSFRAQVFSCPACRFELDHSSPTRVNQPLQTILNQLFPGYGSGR

[2] = molecular target: T2, mUHRF1 V1 mLinker 2 V1* (P293A/P294A/P295A/L297A/R298A/N299A/T300A/G301A/K302A/S303A), full-length (mouse, UniProt Q8VDF2-1 1-782, P293A | P294A | P295A | L297A | R298A | N299A | T300A | G301A | K302A | S303A)
T2 construct: UHRF1, mouse, splicing variant V1, NCBI NP_001104550.1, with ten alanine substitutions in Linker 2; source: E. coli BL21(DE3) RIL, purified (HisPur Cobalt-Resin)
T2 sequence (looked up): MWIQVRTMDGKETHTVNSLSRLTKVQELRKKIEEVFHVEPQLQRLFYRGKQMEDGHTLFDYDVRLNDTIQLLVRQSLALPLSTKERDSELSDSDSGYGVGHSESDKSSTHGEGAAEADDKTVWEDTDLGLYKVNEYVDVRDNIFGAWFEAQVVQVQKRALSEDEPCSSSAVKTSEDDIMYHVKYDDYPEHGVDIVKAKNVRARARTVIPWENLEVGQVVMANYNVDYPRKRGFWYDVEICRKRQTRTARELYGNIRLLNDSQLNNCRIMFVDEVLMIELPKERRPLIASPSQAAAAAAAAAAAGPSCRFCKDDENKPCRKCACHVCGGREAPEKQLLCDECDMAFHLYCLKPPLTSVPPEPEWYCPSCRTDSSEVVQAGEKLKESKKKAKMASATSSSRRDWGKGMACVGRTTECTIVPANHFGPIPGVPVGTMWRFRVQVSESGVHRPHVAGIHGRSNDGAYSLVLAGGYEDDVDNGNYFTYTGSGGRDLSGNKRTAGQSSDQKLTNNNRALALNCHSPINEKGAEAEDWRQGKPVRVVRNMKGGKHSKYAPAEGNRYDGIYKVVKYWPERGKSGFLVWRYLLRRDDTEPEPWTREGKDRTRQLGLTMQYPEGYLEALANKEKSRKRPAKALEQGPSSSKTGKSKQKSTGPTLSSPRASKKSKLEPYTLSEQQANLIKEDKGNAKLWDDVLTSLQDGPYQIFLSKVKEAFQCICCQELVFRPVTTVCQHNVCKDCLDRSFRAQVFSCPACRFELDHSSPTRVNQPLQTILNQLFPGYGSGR

[3] = molecular target: T3, mTTD-PHD V1 P-patch* (P293A/P294A/P295A) (mouse, UniProt Q8VDF2-1 122-380, P293A | P294A | P295A)
T3 construct: UHRF1, mouse, splicing variant V1 (NCBI NP_001104550.1), TTD-Linker 2-PHD, residues 122-380 as told for wild-type mTTD-PHD V1; source: E. coli BL21(DE3) RIL, purified (HisPur Cobalt-Resin)
T3 sequence (looked up): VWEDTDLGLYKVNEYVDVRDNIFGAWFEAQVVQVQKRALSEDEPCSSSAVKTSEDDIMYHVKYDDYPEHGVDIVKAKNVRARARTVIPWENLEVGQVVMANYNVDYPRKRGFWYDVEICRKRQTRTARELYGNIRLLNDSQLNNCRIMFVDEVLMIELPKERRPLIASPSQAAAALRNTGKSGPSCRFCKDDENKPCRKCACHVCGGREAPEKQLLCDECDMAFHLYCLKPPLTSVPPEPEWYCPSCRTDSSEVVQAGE

[4] = molecular target: T4, mUHRF1 V1 P-patch/R-S* (P293A/P294A/P295A/R298A/N299A/T300A/G301A/K302A/S303A), full-length (mouse, UniProt Q8VDF2-1 1-782, P293A | P294A | P295A | R298A | N299A | T300A | G301A | K302A | S303A)
T4 construct: UHRF1, mouse, splicing variant V1, NCBI NP_001104550.1, with nine alanine substitutions in Linker 2; source: E. coli BL21(DE3) RIL, purified (HisPur Cobalt-Resin)
T4 sequence (looked up): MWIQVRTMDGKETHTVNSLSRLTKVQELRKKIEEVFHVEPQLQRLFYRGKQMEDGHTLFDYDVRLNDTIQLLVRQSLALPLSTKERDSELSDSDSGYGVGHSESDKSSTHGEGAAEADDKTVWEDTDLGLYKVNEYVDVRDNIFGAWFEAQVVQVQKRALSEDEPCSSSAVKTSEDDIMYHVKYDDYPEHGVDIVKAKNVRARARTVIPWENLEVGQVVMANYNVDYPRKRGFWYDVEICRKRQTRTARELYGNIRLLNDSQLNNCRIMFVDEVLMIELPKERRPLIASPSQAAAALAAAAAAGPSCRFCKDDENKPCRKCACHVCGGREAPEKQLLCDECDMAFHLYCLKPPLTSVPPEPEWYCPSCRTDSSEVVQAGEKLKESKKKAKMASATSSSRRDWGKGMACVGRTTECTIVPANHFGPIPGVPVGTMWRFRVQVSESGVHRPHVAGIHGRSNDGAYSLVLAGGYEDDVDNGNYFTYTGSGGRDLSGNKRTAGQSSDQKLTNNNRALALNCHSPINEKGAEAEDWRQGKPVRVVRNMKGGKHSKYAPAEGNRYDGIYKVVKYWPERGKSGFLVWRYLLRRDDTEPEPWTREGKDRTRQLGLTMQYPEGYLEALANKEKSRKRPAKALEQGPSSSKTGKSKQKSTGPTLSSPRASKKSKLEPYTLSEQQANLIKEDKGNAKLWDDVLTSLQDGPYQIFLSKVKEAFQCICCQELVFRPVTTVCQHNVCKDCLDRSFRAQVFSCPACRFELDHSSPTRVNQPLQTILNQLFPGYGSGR

[5] = molecular target: T5, mTTD-PHD V1 R298* (R298A) (mouse, UniProt Q8VDF2-1 122-380, R298A)
T5 construct: UHRF1, mouse, splicing variant V1 (NCBI NP_001104550.1), TTD-Linker 2-PHD, residues 122-380 as told for wild-type mTTD-PHD V1; source: E. coli BL21(DE3) RIL, purified (HisPur Cobalt-Resin)
T5 sequence (looked up): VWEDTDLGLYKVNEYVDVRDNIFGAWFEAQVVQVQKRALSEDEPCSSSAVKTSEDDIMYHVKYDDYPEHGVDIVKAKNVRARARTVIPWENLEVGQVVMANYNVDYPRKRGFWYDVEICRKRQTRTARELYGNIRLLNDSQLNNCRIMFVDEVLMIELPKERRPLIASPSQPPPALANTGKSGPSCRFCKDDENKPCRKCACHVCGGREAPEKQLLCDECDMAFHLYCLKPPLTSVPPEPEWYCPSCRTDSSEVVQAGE

B1: FAM-H3(1-15)K9me3 peptide (N-terminally fluorescein-labelled) (peptide)
peptide: ARTKQTARKSTGGKA
modifications: fluorescein (FAM) on the N-terminus; K9 trimethylated
notes: histone H3 aa 1-15; also called FAM-H3K9me3; source: synthetic peptide (Synpeptide Co., Ltd)
[1]
  Kd: 11.1 ± 0.3 µM
[2]
  Kd: 12.6 ± 0.5 µM
[3]
  Kd: 10.2 ± 0.3 µM
[4]
  Kd: 13.9 ± 0.8 µM
[5]
  Kd: 5.9 ± 0.5 µM
